Assay results reported in patent publication US20090035266A1 (US Dept. of Health and Human Services, published 2009).

B1: P59 (native) PAGE4 peptide, amino acids 59-68 (peptide)
peptide: VEGDCQEMDL
notes: Synthetic peptide; also called P59-68
B2: MUC-1 peptide (peptide)
peptide: ALWGQDVTSV
notes: Positive control of the T2 assay; also called positive control
B3: P16 (native) PAGE4 peptide, amino acids 16-25 (peptide)
peptide: QEAPDVVAFV
notes: Synthetic peptide, purity >95%; also called P16-25
B4: P16 (16Y/17L) PAGE4 agonist peptide (peptide)
peptide: YLAPDVVAFV
notes: also called P16-2
B5: P16 (17L) PAGE4 agonist peptide (peptide)
peptide: QLAPDVVAFV
B6: P84 (84Y/85L/92V) PAGE4 agonist peptide (peptide)
peptide: YLPPNPKHV
notes: also called P84-1
B7: P59 (59Y/60L/68V) PAGE4 analogue peptide (peptide)
peptide: YLGDCQEMDV
notes: also called P59-2
B8: P84 (native) PAGE4 peptide, amino acids 84-92 (peptide)
peptide: KTPPNPKHA
notes: Synthetic peptide; also called P84-92
B9: P59 (60L) PAGE4 analogue peptide (peptide)
peptide: VLGDCQEMDL
notes: also called P59-1

Molecular target: T1, HLA-A2 molecules on T2 cells (human)
T1 construct: whole, on cells; MHC class I molecule on the cell surface; also called HLA-A2.1
Assay: T2 cell HLA-A2 upregulation assay, flow cytometry
Description: (§1) The primary amino acid sequence of human PAGE4 was analyzed for consensus motifs for novel HLA-A2 binding peptides. Two 10-mer peptides (P16-25 designated as P16 and P59-68 designated as P59) and one 9-mer peptide (P84-92 designated as P84) were identified and evaluated (Table 1). […] For this reason, five different analogues of native peptides were synthesized and were investigated for their binding ability to HLA-A2-positive T2 cells along with the native P16, P59 and P84 peptides. A MUC-1 peptide and a CEA HLA-A3 binding peptide (CAP-7) were used as a positive and negative control, respectively (Tsang et al., J Natl Cancer Inst 1995; 87:982-90).

B1: no binding (tested: 25 µg/ml).

Molecular target: T1, HLA-A2 molecules on T2 cells
Assay: T2 cell HLA-A2 upregulation assay, flow cytometry, peptide 25 µg/ml
Description: as §1
Peptides were used at a concentration of 25 μg/ml. Amino acids are shown by the single-letter code. Substitution amino acids are indicated in bold italic and underlined. MUC-1 peptide is an HLA-A2 binding peptide and CAP-7 is an HLA-A3 binding CEA peptide. ^aResults are expressed in mean fluorescence intensity (MFI). Values in parentheses are fold increases as compared with the negative control.

Compared with B2, B3 is lower in “T2 binding (MFI)” value: 710 MFI for the first, 309 MFI for the second.

Going from B4 to B5, the “T2 binding (MFI)” value rises from 790 MFI to 827 MFI.

First: B6
Second: B7
The “T2 binding (MFI)” value of the first is higher: 546 MFI for the first, 384 MFI for the second.

Compared with B8, B1 is lower in “T2 binding (MFI)” value: 270 MFI for the first, 246 MFI for the second.

With B9 the “T2 binding (MFI)” value was 293 MFI.

First: B2
Second: B3
The “fold increase as compared with the negative control” value (shortened to “fold increase”) of the first is higher: 2.7 fold for the first, 1.2 fold for the second.

Going from B4 to B5, the “fold increase” value rises from 3 fold to 3.2 fold.

First: B6
Second: B7
The “fold increase” value of the first is higher: 2.1 fold for the first, 1.5 fold for the second.

Going from B8 to B1, the “fold increase” value falls from 1.04 fold to 0.9 fold.

For B9, the “fold increase” value was 1.1 fold.

Molecular target: T1, HLA-A2 molecules on T2 cells
Assay: T2 cells loaded overnight with 12.5 µg/ml peptide, washed, brefeldin A, surface HLA-A2 by flow cytometry (FIG. 1B)
Description: FIGS. 1A and 1B are line graphs showing the binding of native PAGE4 peptides and their agonist peptides to HLA-A2 molecules. Peptides were analyzed for binding to T2 cell line as described in Example 1. For the results presented in FIG. 1A, peptides were used at concentrations of 0 to 25 μg/ml. P16 peptide (◯), P16-1, P16-2 (▴), P84 (□) and P84-1 (▪), positive control (MUC-1 peptide) (+) and negative control (HLA-A3 binding peptide) (X). Results are expressed in mean fluorescence intensity (MFI). FIG. 1B presents a comparison of the stability of HLA-A2 peptide complexes of PAGE4 native and agonist peptides. T2 cells were incubated overnight with P16 peptide (◯), P16-1, P16-2 (▴), P84 (□) and P84-1 (▪) peptides at a concentration of 12.5 μg/ml and then were washed free of unbound peptide and incubated with brefeldin A to block delivery of new class 1 molecules to the cell surface. At the indicated times, cells were stained for the presence of surface peptide-HLA-A2 complexes. Results are expressed in relative percentage of binding compared with 100% at time 0.
The analogues of P16 were designated P16-1 and P16-2, and the analogue of P84 was designated as P84-1. These peptides bound to HLA-A2 at higher levels than their native peptides. Studies were then conducted to examine the ability of these peptides to bind HLA-A2 at various concentrations. […] Studies were then undertaken to examine the stability of the peptide-MHC complex for the peptides P16, P84, P16-1, P16-2 and P84-1. Each peptide was incubated with T2 cells overnight, the unbound peptides were washed off, and the cells were then incubated with Brefeldin A to block delivery of new class I molecules to the cell surface. Cells were analyzed for the presence of peptide-HLA-A2 complexes at various time points.

B4 and B5 cannot be ordered by “percent of peptide-HLA-A2 complexes remaining over 8 hours” value: over 43.6% for the first, over 43.6% for the second.

B6 and B8 cannot be ordered by “percent of peptide-HLA-A2 complexes remaining over 8 hours” value: over 43.6% for the first, over 43.6% for the second.
